A protein production outcome set (Wang et al. 2014)

Assay: label from the status in PepcDB records

METLSNSILTVQIAEHGAELQSIKKDGKEYLWQGDAKFWGRRSPVLFPIVGRVWNNKYRHAGNTYEIGQHGFARDMDFKLTYKEDKGAVYWLESTPDTLGKFPFPFRLLVGYLLEENKITVKWRVENLGAMDMYFQIGAHPAFYFPEFDAATKDRGFFVFDRKSDLEYIMPTEKGCVSPERHVLKLNKEGLMPIDIHTFDCDTYIFDNKQLKKITLLDKKKKPHISLEFNSPLVALWSPTKTHPDCPFVCIEPWYGRCDSVGYSGELKDREWIQKLEPKETFDVEYKIIIE
protein production: failed

METLSVIHTVANRLRELNPDMDIHISSTDAKVYIPTGQQVTVLIHYCGSVFAEPENTDATVQKQLIRISATVIVPQISDAINALDRLRRSLGGIELPDCDRPLWLESEKYIGDAANFCRYALDMTASTLFIAEQESKDSPLLTIVNYEEIQ
protein production: not failed

METMFDTLLQLPLFQGLCHEDFTSILDKVKLHFIKHKAGETIIKSGNPCTQLCFLLKGEISIVTNAKENIYTVIEQIEAPYLIEPQSLFGMNTNYASSYVAHTEVHTVCISKAFVLSDLFRYDIFRLNYMNIVSNRAQNLYSRLWDEPTLDLKSKIIRFFLSHCEKPQGEKTFKVKMDDLARCLDDTRLNISKTLNELQDNGLIELHRKEILIPDAQKLL
protein production: not failed

METTPVTSCTIIDATDRSIRQTLGETSTLARLIWVDAGLASPPLCSGLARCGRCRVRITEAAPAPHEDDREFFSAEDISAGWRLACRHAPAHGMVVHVPLPVMPHRHASRPKHPGPFRLAVDLGTTSLQWSLLAPDGTVAAQGSETNPQMGAGSDVMSRIAMARSDKGRGRLRELVLQALRRIVADVEGTPATADAVPPAGSGDEPTTACGYESRVEELCVAGNTAMTAILADESVEGLASAPYRLEMRGGTALALPGLPPAWIPPLPAPFVGGDLSAGYLAVLTDHAPAFPFVLADLGTNGEFVLALSPERTLVTSVALGPALEGIGLTFGTVAQRGAITSFTLTPGGLVPYVLDGGEADGISGTGYISLVHALLRAGLLDVDGRFIQSPSSPLAARMARSIVSHRGEPCLPLARGLYLAARDIEEILKVKAAFSLAFERLLATAQMPSHALSGIHLAGALGQHALPADLEGLGFIPPGSGGRTRAVGNTSLRGAELLLTSPPLRDTLNTWREGCTVVDLTAAPDFSAAFLRHMHFHFLEHHHHHH
protein production: failed

METTQKDELSSFLSVLPPVDFCCVYGSTLHPNNQDKSKMVDYILGVSDPIKWHSANLKMNSDHYASWMVHLGGARLITNVADKVGVGVHFNPFVNWNDRKLKYGVVRMHDLVQDILDWKRFYLSGRLQKPVHMLVDNLDIEDVNSVNKRAAISAALLLLPSKFTEEDLYAKICSLSYMGDLRMFFAEDTNKVNKIVKGQFDLFQSMYKPFLEECETKNLLRFSSAEASHTKLVQDSSLSATRSLVSSLPASVRSQMGKSLGEKKFVSETGRVMGEVCISSREEAAKCMEKVMRRRVMVSSGRQAVSGFLAAGAINATMYLSQKMRKAWNSRA
protein production: failed

METYDVLVVGGGPGGSTAARYAAKYGLKTLMIEKRPEIGSPVRCGEGLSKGILNEADIKADRSFIANEVKGARIYGPSEKRPIILQSEKAGNEVGYVLERDKFDKHLAALAAKAGADVWVKSPALGVIKENGKVAGAKIRHNNEIVDVRAKMVIAADGFESEFGRWAGLKSVILARNDIISALQYRMINVDVDPDYTDFYLGSIAPAGYIWVFPKGEGMANVGIGSSINWIHNRFELKNYLDRFIENHPGLKKGQDIQLVTGGVSVSKVKMPITMPGLMLVGDAARLIDPITGGGIANAIVSGMYAAQVTKEAIESNDYSPQMMQKYEKLIKERFERKHLRNWVAKEKLAMLSDDTLDKLVDIVSEQVLTTISVEAILKAIAEKYPEVVKELEDLI
protein production: not failed

METYPITVGGVTRHVPLIEPLPGRRIPLVEFLGDPEFTRAAAEALRPLVPKEAEILFTTETSPIPLTHVLAEALGLPYVVARRRRRPYMEDPIIQEVQTLTLGVGEVLWLDRRFAEKLLNQRVVLVSDVVASGETMRAMEKMVLRAGGHVVARLAVFRQGTPGLAVDTVAELPVL
protein production: not failed

MEVARGLEGVLFTESRMCYIDGQQGKLYYYGIPIQELAEKSSFEETTFLLLHGRLPRRQELEEFSAALARRRALPAHLLESFKRYPVSAHPMSFLRTAVSEFGMLDPTEGDISREALYEKGLDLIAKFATIVAANKRLKEGKEPIPPREDLSHAANFLYMANGVEPSPEQARLMDAALILHAEHGFNASTFTAIAAFSTETDLYSAITAAVASLKGPRHGGANEAVMRMIQEIGTPERAREWVREKLAKKERIMGMGHRVYKAFDPRAGVLEKLARLVAEKHGHSKEYQILKIVEEEAGKVLNPRGIYPNVDFYSGVVYSDLGFSLEFFTPIFAVARISGWVGHILEYQELDNRLLRPGAKYVGELDVPYVPLEARE
protein production: not failed

MEVAVEKAVAAAAAASAAASGGPSAAPSGENEAESRQGPDSERGGEAARLNLLDTCAVCHQNIQSRAPKLLPCLHSFCQRCLPAPQRYLMLPAPMLGSAETPPPVPAPGSPVSGSSPFATQVGVIRCPVCSQECAERHIIDNFFVKDTTEVPSSTVEKSNQVCTSCEDNAEANGFCVECVEWLCKTCIRAHQRVKFTKDHTVRQKEEVSPEAVGVTSQRPVFCPFHKKEQLKLYCETCDKLTCRDCQLLEHKEHRYQFIEEAFQNQKVIIDTLITKLMEKTKYIKFTGNQIQNRIIEVNQNQKQVEQDIKVAIFTLMVEINKKGKALLHQLESLAKDHRMKLMQQQQEVAGLSKQLEHVMHFSKWAVSSGSSTALLYSKRLITYRLRHLLRARCDASPVTNNTIQFHCDPSFWAQNIINLGSLVIEDKESQPQMPKQNPVVEQNSQPPSGLSSNQLSKFPTQISLAQLRLQHMQQQVMAQRQQVQRRPAPVGLPNPRMQGPIQQPSISHQQPPPRLINFQNHSPKPNGPVLPPHPQQLRYPPNQNIPRQAIKPNPLQMAFLAQQAIKQWQISSGQGTPSTTNSTSSTPSSPTITSAAGYDGKAFGSPMIDLSSPVGGSYNLPSLPDIDCSSTIMLDNIVRKDTNIDHGQPRPPSNRTVQSPNSSVPSPGLAGPVTMTSVHPPIRSPSASSVGSRGSSGSSSKPAGADSTHKVPVVMLEPIRIKQENSGPPENYDFPVVIVKQESDEESRPQNANYPRSILTSLLLNSSQSSTSEETVLRSDAPDSTGDQPGLHQDNSSNGKSEWLDPSQKSPLHVGETRKEDDPNEDWCAVCQNGGELLCCEKCPKVFHLSCHVPTLTNFPSGEWICTFCRDLSKPEVEYDCDAPSHNSEKKKTEGLVKLTPIDKRKCERLLLFLYCHEMSLAFQDPVPLTVPDYYKIIKNPMDLSTIKKRLQEDYSMYSKPEDFVADFRLIFQNCAEFNEPDSEVANAGIKLENYFEELLKNLYPEKRFPKPEFRNESEDNKFSDDSDDDFVQPRKKRLKSIEERQLLK
protein production: not failed

MEVDEDIELQKHQEQQSRKLQRFSEDNTGLMRNWNNPSSRIIRVSRASGGKDRHSKVLTSKGLRDRRIRLSVATAIQFYDLQDRLGFDQPSKAVEWLINAASDSITDLPLLNTNFDHLDQNQNQTKSACSSGTSESSLLSLSRTEIRGKARERARERTAKDRDKDLQNAHSSFTQLLTGGFDQQPSNRNWTGGSDCFNPVQLQIPNSSSQEPMNHPFSFVPDYNFGISSSSSAINGGYSSRGTLQSNSQSLFLNNNNNITQRSSISSSSSSSSPMDSQSISFFMATPPPLDHHNHQLPETFDGRLYLYYGEGNRSSDDKAKERR
protein production: failed

MEVDLSGFNIDAPRWDQCTFLGRVKHFFNITDPRTVFVSEQELDWAKSVVEKSRMGLMPPGTQVEQLLYAKKLYDSAFHPDTGEKMNVIGRMSFQVPGGMIITGFMLQFYRTMPAVVFWQWVNQSFNALVNYTNRNAVSPTSVR
protein production: failed

MEVERLSLKEFCDMVAERKPTPGGGAVGSVVGAMACALAEMVANFTRKKKGYEDVEPEMERIVEAMEEARLKLFDLAKKDMEAFEKVMKAYKSSEGELQNALKEAASVPMDVIRVMKDLAHELEKLAEFGNKNLASDTLNAADLCHAVFQVEKVNVLINLKEISDETFRKNMLEELEEQEAQIEGCYQRVKKMLEGIVWSSK
protein production: not failed

MEVIREQEFVNQYHYDARNLEWEEENGTPKTNFEVTFQLANRDEAAKVTSIVAVLQFVIVRDEFVISGVISQMAHIQGRLINEPSEFSQDEVENLAAPLLEIVKRLTYEVTEIALDRPGVTLEFNS
protein production: not failed

MEVKMPFVVFVKRSVRFPGKHSYMIGGKSLLEIIVSKLSNIGKVYVFTKDKDIICNGCSIEFDTTNGIITDSVLAAIDKFGTFFAVAGDMPLIKPELVSKMLSQYKGSPLFPRHMDGMLEPLFGIYTEDLYNALKEYLDKGGESLHAFLLTQPLQYYDIGSDDEVNFININYKSDIEKYRDLLVQLLEHHHHHH
protein production: not failed

MEVKYLKDSEFLVLLLITTFVVITNVYFIAWDDSPQSWDPALHLTYSFVYFNLIKSLQFSEIVKVSNYYPPFFYLSSTPLYFLFGFSEDIAILTNLIYYFILIYSVFQIAKIMKDRNAGVISAVIISAFPALIKFQRVYMIDFALLSLTAFAILLYLRSEDFRNLKYSVLFGIVFGIAELTKWNAFVYIIPSIFALFLVNYFMRCPYCHQIVKNGWKVGYRRFCSKKHLKLYEKSAKTNNTMLNFAISLFVAFLFAAWWYLPNLSTVIMRLTYFANIGGKEGDPAFLTIQGWIYYANSILDAVGAVFLILFAVSIYYLYKNNRYLFLGLLTPIALIYIILTLLSNKDPRYIMPVLPFVAISIGVFVSSLANRKYSTILTFIILLFGLLNISALTFGQPDIDNKILPNPEHPKKEDWKIYALLEAIKESGGEGKIVVVLPDHPYLNGQSLNFYRLKEGYKFAIYNGVYIGYEAFVHNFDKITYIILIEPREHKGVYGDIEKKLYEFFYERKDNFEVVKVFDLPDNSKLYIYKRT
protein production: failed

MEVMRGVRVIEGMNGGRFPYCNVVVVGDVVIDAGAGLEVMRKVNASLLVLSHLHPDHSSGAWLFKDVLAPAEGRITLDTLARRFVAPDLVESWKRFISAATGLREFECERYEEGVVVKEPEIVAVPVKGHTMDHHVFLIEQKVLFGADVDLTSFGPFYGNPEADPYLFEREMDKLLDIDFEIFVSAHSKPVFGKEEAEGRILEFKRKIKEREEIILSLLEEPKSLDELVELSPIYGRKPYAKEILDFFERVMIEKHIEKLEMEGRVRKEDGKYVRV
protein production: failed

MEVPMDCPGCENKVRKALEKMNGVHDVQIDIKQQRVTVTGSAEQKKVLKVARNVTKRDICLWSYPYHPESNGYNDRYFKKKFRKRINMSVNGEKVSSYNYHKHGYHGHEHGYYQERPYSGLINPSASSMFSEENPHFCSIM
protein production: failed

MEVRGYKTEVALGKSSNSLLAGGLERRWQRLSGGCLGLLLMLPAVAAAAVYVPNAGQAMRDIQATQPALPEQPAPELDLPAKPPSAPAQAPDTSGIRLQVNDFVIVGNQVFSNETLQALLADLKGQELDLNQLRAAAERLTTYYQNQGYMLARAFLPAQDIEDGVVRIEVMEGRYGRIQVNNQSRALNSVITGPLSSLHSDTAVRSEDLERSLLLLSDLPGVRVKGTLSAGEQRGTTDLLVNAQPGPWASGTLEADNFGGYYTGEYRLGGSLNLNNPLRLGDQFNLRLLGSDEDQRYYRAAYKLPLGPWSTSVGVAYSRMNYELSRDFEVLEAHGQASIGSVFITQPLIRSRTFDLSAQLQYEDKRLRDDIDLFEVSSQKHVELWSLSLNGNSQDSLLGGGQNFFYLTYGSGRLSIDDPMDQWRDHFTAGTNGGFQKLNLNAARLQYLSPRFQLYGQFNGQWSSTNLDSSEKFGIGGPFDVRAYPQGTSSGDQGWQASLELRFLLAPRWQLKAFVDHGAVQVNKSPWIHDENRRQLSGAGVGASWSGPSQQISVTSAWALDNNQEGSGPERTPRIWASATQYF
protein production: failed

MEVSKIRIHDLPEEERPRERLIKNGPESLSNAELLGIVLRTGSREENVISLCSRILMEYNIKQLSLANVSKLMQVNGIGKAKAAQIAAVFELARRLETFVEEPKRKISSPKDVYTLMYPKMREQKKEKFITLYLDTKNQILKEEVVSIGSLNASIVHPREVFKSALMESSASVIMVHNHPSGDPSPSREDIMVTEKLVEGGKLLGIDILDHIIIGDGRYVSLKDEGFVK
protein production: not failed
